In publication PMC3328451, “Mycobacterium tuberculosis Rv3586 (DacA) Is a Diadenylate Cyclase That Converts ATP or ADP into c-di-AMP” (PLoS ONE, 2012):

Columns and labels:
[1] = molecular target: the molecule itself; assay: AUC; sedimentation velocity, 4°C, 10% glycerol in PBS; DacA and DacA_(1–287) at 40 000 rpm, DacA_(140–358) at 50 000 rpm; mass by the c(M) method in SEDFIT
[2] = molecular target: the molecule itself; assay: SEC
[3] = molecular target: the molecule itself; assay: cross-linking; 1.5 µM protein in 50 mM sodium phosphate pH 7.4, 20% glycerol, 5 mM MgCl2, with 35 mM glutaraldehyde for 1 h at room temperature; SDS-PAGE and Western blot with the anti-DacA antibody

B1: DacA_(1–287) (domain or fragment)
chain: MHAVTRPTLREAVARLAPGTGLRDGLERILRGRTGALIVLGHDENVEAICDGGFSLDVRYAATRLRELCKMDGAVVLSTDGSRIVRANVQLVPDPSIPTDESGTRHRSAERAAIQTGYPVISVSHSMNIVTVYVRGERHVLTDSATILSRANQAIATLERYKTRLDEVSRQLSRAEIEDFVTLRDVMTVVQRLELVRRIGLVIDYDVVELGTDGRQLRLQLDELLGGNDTARELIVRDYHANPEPPSTGQINATLDELDALSDGDLLDFTALAKVFGYPTTTEAQDS
notes: also called first 287 aa of DacA; DacA lacking the C-terminal HhH domain
- stoichiometry N [1]: 4

B2: Mycobacterium tuberculosis Rv3586 (DacA) (enzyme)
chain: MHAVTRPTLREAVARLAPGTGLRDGLERILRGRTGALIVLGHDENVEAICDGGFSLDVRYAATRLRELCKMDGAVVLSTDGSRIVRANVQLVPDPSIPTDESGTRHRSAERAAIQTGYPVISVSHSMNIVTVYVRGERHVLTDSATILSRANQAIATLERYKTRLDEVSRQLSRAEIEDFVTLRDVMTVVQRLELVRRIGLVIDYDVVELGTDGRQLRLQLDELLGGNDTARELIVRDYHANPEPPSTGQINATLDELDALSDGDLLDFTALAKVFGYPTTTEAQDSTLSPRGYRAMAGIPRLQFAHADLLVRAFGTLQGLLAASAGDLQSVDGIGAMWARHVREGLSQLAESTISDQ
notes: also called native DacA; not shown: His tag, C-terminal, kept
- stoichiometry N [2]: 8

B3: DacA_(140–358) (domain or fragment)
chain: VLTDSATILSRANQAIATLERYKTRLDEVSRQLSRAEIEDFVTLRDVMTVVQRLELVRRIGLVIDYDVVELGTDGRQLRLQLDELLGGNDTARELIVRDYHANPEPPSTGQINATLDELDALSDGDLLDFTALAKVFGYPTTTEAQDSTLSPRGYRAMAGIPRLQFAHADLLVRAFGTLQGLLAASAGDLQSVDGIGAMWARHVREGLSQLAESTISDQ
notes: also called last 219 aa of DacA; DacA lacking the N-terminal Dac domain
- stoichiometry N [3]: 2
